Data from paper PMC6349121.
pKd: −log10 of the molar value.

Biological target: GST-cIAP1R (cIAP1 RING domain, residues 556-C, with GST) (human) (UniProt Q13490)
Assay: SPR; as a1, but UbcH5B–Ub variants diluted in running buffer containing 0.6 mM UbΔGG; GST-cIAP1R coupled to a CM-5 chip, 25 °C; steady-state affinity analysis

pKd: 6.66
Substance: UbcH5B–Ub in the presence of 0.6 mM UbΔGG (UbcH5B–Ub with backside-bound UbΔGG) (from UniProt P62837 1-147; P0CG47 1-76; P0CG47 1-74) (complex)
